Columns and labels:
[1] = biological target: T1, P. furiosus (Pf) Mre11, wild type (P. furiosus, UniProt Q8U1N9 1-426); assay: SEC
[2] = biological target: T1, P. furiosus (Pf) Mre11, wild type; assay: FRET or BRET
FRET or BRET = biological target: the molecule itself; assay: FRET or BRET

binding result [1] | binding result [2] | Binder | binding result (FRET or BRET)
 | binds | P. furiosus Rad50^NBD [change] [change]/[change], fluorophore-labeled (domain or fragment) MKLERVTVKNFRSHSDTVVEFKEGINLIIGQNGSGKSSLLDAILVGLYWPCRIKDIKKDEFTKVGARDTYIDLIFEKDGTKYRITRRFLKGYSSGEIHAMKRLVGNEWKHVTEPSSKAISAFMEKLIPYNIFLNAIYIRQGQIDAILESDEAREKVVREVLNLDKFETAYKKLSELKKTINNRIKEYRDILARTEGGAGGAGGRERVKKEIKDLEKAKDFTEELIEKVKKYKALAREAALSKIGELASEIFAEFTEGKYSEVVVRAEENKVRLFVVWEGKERPLTFLSGGERIALGLAFRLAMSLYLAGEISLLILDEPTPYLDEEREEKLITIMERYLKKIPQVILVSHDEELKDAADHVIRISLENGSSKVEVVS | binds
 | binds | P. furiosus Rad50^NBD [change] [change], fluorophore-labeled (domain or fragment) MKLERVTVKNFRSHSDTVVEFKEGINLIIGQNGSGKSSLLDAILVGLYWPCRIKDIKKDEFTKVGARDTYIDLIFEKDGTKYRITRRFLKGYSSGEIHAMKRLVGNEWKHVTEPSSKAISAFMEKLIPYNIFLNAIYIRQGQIDAILESDEAREKVVREVLNLDKFETAYKKLSELKKTINNRIKEYRDILARTEGGAGGAGGRERVKKEIKDLEKAKDFTEELIEKVKKYKALAREAALSKIGELASEIFAEFTEGKYSEVVVRAEENKVRLFVVWEGKERPLTFLSGGERIALGLAFRLAMSLYLAGEISLLILDEPTPYLDEERRRKLITIMERYLKKIPQVILVSHDEELKDAADHVIEISLENGSSKVEVVS | binds

Continued, binder first:

Binder | binding result [1] | binding result [2] | binding result (FRET or BRET)
P. furiosus Rad50 nucleotide-binding domain construct (aa 1-195 - GGAGGAGG linker - aa 709-882) (domain or fragment) MKLERVTVKNFRSHSDTVVEFKEGINLIIGQNGSGKSSLLDAILVGLYWPLRIKDIKKDEFTKVGARDTYIDLIFEKDGTKYRITRRFLKGYSSGEIHAMKRLVGNEWKHVTEPSSKAISAFMEKLIPYNIFLNAIYIRQGQIDAILESDEAREKVVREVLNLDKFETAYKKLSELKKTINNRIKEYRDILARTEGGAGGAGGRERVKKEIKDLEKAKDFTEELIEKVKKYKALAREAALSKIGELASEIFAEFTEGKYSEVVVRAEENKVRLFVVWEGKERPLTFLSGGERIALGLAFRLAMSLYLAGEISLLILDEPTPYLDEERRRKLITIMERYLKKIPQVILVSHDEELKDAADHVIRISLENGSSKVEVVS | binds |  | 
P. furiosus Rad50^NBD [change] [change]/[change], fluorophore-labeled (domain or fragment) MKLERVTVKNFRSHSDTVVEFKEGINLIIGQNGSGKSSLLDAILVGLYWPCRIKDIKKDEFTKVGARDTYIDLIFEKDGTKYRITRRFLKGYSSGEIHAMKRLVGNEWKHVTEPEEKAISAFMEKLIPYNIFLNAIYIRQGQIDAILESDEAREKVVREVLNLDKFETAYKKLSELKKTINNRIKEYRDILARTEGGAGGAGGRERVKKEIKDLEKAKDFTEELIEKVKKYKALAREAALSKIGELASEIFAEFTEGKYSEVVVRAEENKVRLFVVWEGKERPLTFLSGGERIALGLAFRLAMSLYLAGEISLLILDEPTPYLDEERRRKLITIMERYLKKIPQVILVSHDEELKDAADHVIRISLENGSSKVEVVS |  | binds | binds
P. furiosus Rad50^NBD [change] [change], fluorophore-labeled (domain or fragment) MKLERVTVKNFRSHSDTVVEFKEGINLIIGQNGSGKSSLLDAILVGLYWPCRIKDIKKDEFTKVGARDTYIDLIFEKDGTKYRITRRFLKGYSSGEIHAMKRLVGNEWKHVTEPSSKAISAFMEKLIPYNIFLNAIYIRQGQIDAILESDEAREKVVREVLNLDKFETAYKELSELKKTINNRIKEYRDILARTEGGAGGAGGRERVKKEIKDLEKAKDFTEELIEKVKKYKALAREAALSKIGELASEIFAEFTEGKYSEVVVRAEENKVRLFVVWEGKERPLTFLSGGERIALGLAFRLAMSLYLAGEISLLILDEPTPYLDEERRRKLITIMERYLKKIPQVILVSHDEELKDAADHVIRISLENGSSKVEVVS |  | binds | binds

From publication PMC11965522 (Communications Biology, 2025)
